Earlier results, collected in publication PMC3962080.
pKd: −log10 of the molar value.

Molecular target: human serum albumin (Homo sapiens) (UniProt P02768)

G148-ABD albumin-binding domain (from UniProt P06654)
pKd: 8.30
